Measured values published in publication PMC8246987.

Biological target: T1, DJ‐1 (human (endogenous in HEK‐293)), Q99497
T1 chain: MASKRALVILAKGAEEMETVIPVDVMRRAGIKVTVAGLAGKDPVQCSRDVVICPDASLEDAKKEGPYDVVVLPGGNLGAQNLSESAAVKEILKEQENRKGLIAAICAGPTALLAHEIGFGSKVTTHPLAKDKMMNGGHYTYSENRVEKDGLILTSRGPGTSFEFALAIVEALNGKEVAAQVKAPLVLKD
Assay: cross-linking
Settings: remark: other sources report otherwise

B1: DJ‐1, Q99497 1-189 (natural protein)
chain: T1 chain
stoichiometry N: 2
